In the supplement of paper PMC10567573 one finds protein stability index data, which are given here for 29 sequences.

± gives the standard deviation.

The series is described as follows: protein stability index of a GFP-peptide fusion (GPS, HEK-293T) (PSI 1-6); higher = more stable.
The mark [1] stands for this setting: treatment: DMSO, c terminus: a fixed tail appended.
Setting [2] is: treatment: MLN4924 1 uM, 8 h, c terminus: a fixed tail appended.
The mark [3] stands for this setting: treatment: DMSO, c terminus: native.
Where [4] appears, read: treatment: MLN4924 1 uM, 8 h, c terminus: native.
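Also: 24-mer peptide tiles fused after GFP, lentivirally expressed, FACS-sorted into six equal bins by GFP/DsRed ratio, decoded by Illumina sequencing, PSI is the read-weighted mean bin number.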

On to FVVEYHGDLIEITDAKKREALYAQ [KMT5A], for which the protein stability index stood at 2.65 ± 0.34 under setting [1] and 2.73 ± 0.41 under setting [2].
For FYRSTAPSEDIWKKFELVPSPPTS [MYCL], in that order: 2.67 ± 0.15 and 2.76 ± 0.32.
Regarding FYSAYLVAEKVVVITKHNDDEQYA [HSP90AB1], the protein stability index runs as follows: under setting [1], 2.18 ± 0.23; under setting [2], 2.11 ± 0.43.
The corresponding values for GAAEEARRLEQRWGFGLEELYGLA [ACBD3] are 2.77 ± 0.37 and 2.99 ± 0.12.
The corresponding values for GAERLDALLADEERCLSCILAQQP [TRADD] are 3.59 ± 0.25 and 3.83 ± 0.28.
For GAQVKELEEKCQQPASELLQDVRV [TRIM15], in that order: 5.4 ± 0.36 and 5.43 ± 0.12.
Regarding GATPSYHWDLAELLPNQSHGNQSA [SLC22A15], the protein stability index reads like this: under setting [1], 4.06 ± 0.19; under setting [2], 4.22 ± 0.33.
As to GAYIGEGRVEVLKNGEWGTVCDDK [LOXL2], under setting [1], the protein stability index is 4.99 ± 0.36.
Turning to GCQLDLRYADLEAVNRARRPLARP [RHOBTB1], the protein stability index was 3.07 ± 0.12 under setting [1] and 3.16 ± 0.28 under setting [2].
For GCSQFRLAVLDWNQRAMDLYKALG [SAT2], in that order: 2.2 ± 0.39 and 2.02 ± 0.18.
For the sequence GDDFELLDQSELSQLDPASSRSH [RETREG3], the protein stability index runs as follows: under setting [3], 4.75 ± 0.29; under setting [4], 4.85 ± 0.4.
For GEEAVTLVEDMQRELGRLRQQVTN [ZNF263], the protein stability index runs as follows: under setting [1], 4.1 ± 0.14; under setting [2], 4.02 ± 0.29.
For GESFPAQVPSGEDQTALSLEECLR [NFE2L1], in that order: 5.08 ± 0.89 and 5.15 ± 0.076.
The corresponding values for GFEHYDLFFIDGSTPSDNIVRRFL [CDC14A] are 2.12 ± 0.24 and 2.16 ± 0.25.
The corresponding values for GFSSIPDAFWWAVVTMTTVGYGDM [KCNA3] are 3.06 ± 0.47 and 3.25 ± 0.27.
As to GGAQASGTLIGVGQSVTAVGRIIA [MFSD9], the protein stability index is 3.38 ± 0.34 under setting [1] and 3.42 ± 0.2 under setting [2].
The corresponding values for GGGGGGGGTSSNNSEEEEDDDDEE [ANKRD17] are 5.68 ± 0.21 and 5.55 ± 0.34.
The corresponding values for GGGGVAAVVVLDQGSRHWQKLREE [DUSP5] are 2.96 ± 0.26 and 2.65 ± 0.3.
Consider GGKNCKKPAEYGYVSLGRLGAAKG [CEBPB], for which the protein stability index under setting [1] was determined as 3.64 ± 0.27 and the protein stability index under setting [2] worked out at 3.52 ± 0.54.
For GIPGWGFSGWISALVVPKGNTAVS [SCAMP3], in that order: 2.78 ± 0.72 and 2.41 ± 0.52.
The corresponding values for GIVVWNMDVERQETPEWLDSDSCQ [WDFY2] are 3.3 ± 0.2 and 3.5 ± 0.32.
The corresponding values for GKETLTPSELRDLVTQQLPHLMPS [S100A14] are 3.94 ± 0.65 and 3.99 ± 0.12.
For GKGDDSETDKNNCSNAKAVETDV [KCNA4], the protein stability index under setting [3] is 5.13 ± 0.28 and the protein stability index under setting [4] was determined as 5.52 ± 0.38.
Under setting [4], GKQPVSLPARRLKLRGRKRRQRG [CPXM2] registered a protein stability index of 3.59 ± 0.25.
Take GLANSSRVRGRVGTIRPVRCPSSS [C22orf15]: the protein stability index amounted to 4.12 ± 0.14 under setting [1] and 4.23 ± 0.21 under setting [2].
For GLEDAGLDPHFVPTELWPQEAVPL [TEX19], in that order: 4.44 ± 0.13 and 4.62 ± 0.12.
For GLGCKDLDLIFHVALPTEAEFQLV [TENT5C], in that order: 2.26 ± 0.21 and 2.28 ± 0.45.
Take GLGLPMSRSQNTDMVQKSVSKTLP [CLINT1]: the protein stability index turned out to be 4.33 ± 0.23 under setting [1] and 4.44 ± 0.099 under setting [2].
GLHYIAFRKVKQMHLNFMDEKDRI [DNAJC4] registered a protein stability index under setting [1] of 2.54 ± 0.29 and a protein stability index under setting [2] of 2.65 ± 0.35.
